Assay results taken from US20260266848A1, “COMPOSITIONS AND METHODS FOR DIAGNOSING AND TREATING DYSTONIA” (Duke University, priority 2023, published 2026).

What was measured:
DYT-TOR1A MEF EVs = assay: Quantitative LC-MS/MS proteomics of EVs from drug-treated DYT-TOR1A MEF cultures (ritonavir, salubrinal); type: cell-based, mouse; design: key to RTV Corrective Direction / RTV Corrective Direction, Grwd1 / RTV Corrective Direction, Srrm2 / RTV Corrective Direction, Rbm17 / RTV Corrective Direction, Dcaf8 / RTV Corrective Direction, Edil3 / RTV Corrective Direction, Timp3 / RTV Corrective Direction, Heatr3 / RTV Corrective Direction, Brd4 / RTV Corrective Direction, P3h4 / RTV Corrective Direction, Pacsin3 / RTV Corrective Direction, Naa50 / RTV Corrective Direction, Lpar6 / RTV Corrective Direction, Ndrg1 / RTV Corrective Direction, Kntc1 / RTV Corrective Direction, Cdk11b / RTV Corrective Direction, Sumo1 / RTV Corrective Direction, Lsm4 / RTV Corrective Direction, Hmga2 / RTV Corrective Direction, Cstf1 / RTV Corrective Direction, Tes / RTV Corrective Direction, Sbno1 / RTV Corrective Direction, Unc119b / RTV Corrective Direction, Cfdp1 / RTV Corrective Direction, Sec61b: YES = protein abundance effect opposite to DYT/WT; settings: EV protein abundance; for RTV Corrective Direction: DYT + RTV (ritonavir) vs DYT, direction compared with DYT/WT; for DYT + RTV/DYT Cohen's d: ritonavir (RTV)-treated DYT vs DYT
WT MEF EVs = assay: Quantitative LC-MS/MS proteomics of EVs from ISRIB-treated WT MEF cultures; type: cell-based, mouse; design: key to ISRIB and DYT Parallel Direction / ISRIB and DYT Parallel Direction, Ctdsp1 / ISRIB and DYT Parallel Direction, Pcdh19 / ISRIB and DYT Parallel Direction, Tspan7 / ISRIB and DYT Parallel Direction, Myo1e / ISRIB and DYT Parallel Direction, Plpp3 / ISRIB and DYT Parallel Direction, Sh3bp4 / ISRIB and DYT Parallel Direction, Dnajc7 / ISRIB and DYT Parallel Direction, Drg1 / ISRIB and DYT Parallel Direction, Maea: YES = protein abundance effect similar to DYT/WT; settings: EV protein abundance; for WT + ISRIB/WT Cohen's d: ISRIB-treated WT vs WT; for ISRIB and DYT Parallel Direction: WT + ISRIB vs WT, direction compared with DYT/WT

B1: Upf1 (protein, UniProt Q9EPU0 1-1124, looked up)
Regulator of nonsense …: MSVEAYGPSSQTLTFLDTEEAELLGADTQGSEFEFTDFTLPSQTQTPPGGPGGAGGPGGAGAGGAAGQLDAQVGPEGILQNGAVDDSVAKTSQLLAELNFEEDEEDTYYTKDLPVHACSYCGIHDPACVVYCNTSKKWFCNGRGNTSGSHIVNHLVRAKCKEVTLHKDGPLGETVLECYNCGCRNVFLLGFIPAKADSVVVLLCRQPCASQSSLKDINWDSSQWQPLIQDRCFLSWLVKIPSEQEQLRARQITAQQINKLEELWKENPSATLEDLEKPGVDEEPQHVLLRYEDAYQYQNIFGPLVKLEADYDKKLKESQTQDNITVRWDLGLNKKRIAFFTLPKTDSGNEDLVIIWLRDMRLMQGDEICLRYKGDLAPLWKGIGHVIKVPDNYGDEIAIELRSSVGAPVEVTHNFQVDFVWKSTSFDRMQSALKTFAVDETSVSGYIYHKLLGHEVEDVVIKCQLPKRFTAQGLPDLNHSQVYAVKTVLQRPLSLIQGPPGTGKTVTSATIVYHLARQGNGPVLVCAPSNIAVDQLTEKIHQTGLKVVRLCAKSREAIDSPVSFLALHNQIRNMDSMPELQKLQQLKDETGELSSADEKRYRALKRTAERELLMNADVICCTCVGAGDPRLAKMQFRSILIDESTQATEPECMVPVVLGAKQLILVGDHCQLGPVVMCKKAAKAGLSQSLFERLVVLGIRPIRLQVQYRMHPALSAFPSNIFYEGSLQNGVTAADRVKKGFDFQWPQPDKPMFFYVTQGQEEIASSGTSYLNRTEAANVEKITTKLLKAGAKPDQIGIITPYEGQRSYLVQYMQFSGSLHTKLYQEVEIASVDAFQGREKDFIILSCVRANEHQGIGFLNDPRRLNVALTRARYGVIIVGNPKALSKQPLWNHLLSYYKEQKALVEGPLNNLRESLMQFSKPRKLVNTVNPGARFMTTAMYDAREAIIPGSVYDRSSQGRPSNMYFQTHDQISMISAGPSHVAAMNIPIPFNLVMPPMPPPGYFGQANGPAAGRGTPKTKTGRGGRQKNRFGLPGPSQTTLPNSQASQDVASQPFSQGALTQGYVSMSQPSQMSQPGLSQPELSQDSYLGDEFKSQIDVALSQDSTYQGERAYQHGGVTGLSQY
DYT-TOR1A MEF EVs
  RTV Corrective Direction: YES
  DYT + RTV/DYT Cohen's d: 4.24
WT MEF EVs
  WT + ISRIB/WT Cohen's d: −1.84
  ISRIB and DYT Parallel Direction: YES

B2: Eif4g2 (protein, UniProt Q62448 1-906, looked up)
Eukaryotic translation …: MESAIAEGGASRFSASSGGGGSRGAPQHYPKTAGNSEFLGKTPGQNAQKWIPARSTRRDDNSAANNSANEKERHDAIFRKVRGILNKLTPEKFDKLCLELLNVGVESKLILKGVILLIVDKALEEPKYSSLYAQLCLRLAEDAPNFDGPAAEGQPGQKQSTTFRRLLISKLQDEFENRTRNVDVYDKRENPLLPEEEEQRAIAKIKMLGNIKFIGELGKLDLIHESILHKCIKTLLEKKKRVQLKDMGEDLECLCQIMRTVGPRLDHERAKSLMDQYFARMCSLMLSKELPARIRFLLQDTVELREHHWVPRKAFLDNGPKTINQIRQDAVKDLGVFIPAPMAQGRSDFFLEGPFMPPRMKMDRDPLGGLADMFGQMPGSGIGTGPGVIQDRFSPTMGRHRSNQLFNGHGGHIMPPTQSQFGEMGGKFMKSQGLSQLYHNQSQGLLSQLQGQSKDMPPRFSKKGQLNADEISLRPAQSFLMNKNQVPKLQPQITMIPPSAQPPRTQTPPLGQTPQLGLKTNPPLIQEKPAKTSKKPPPSKEELLKLTEAVVTDYLNSGNANDAVSGVREMRAPKHFLPEMLSKVIILSLDRSDEDKEKASSLISLLKQEGIATSDNFMQAFLNVLEQCPKLEVDIPLVKSYLAQFAARAIISELVSISELAQPLESGTHFPLFLLCLQQLAKLQDREWLTELFQQSKVNMQKMLPEIDQNKDRMLEILEGKGLSFLFPLLKLEKELLKQIKLDPSPQTIYKWIKDNISPKLHVDKGFVNILMTSFLQYISSEVSPPSDETDSSSAPSKEQLEQEKQLLLSFKPVMQKFLHDHVDLQVSALYALQVHCYNSSFPKGMLLRFFVHFYDMEIIEEEAFLAWKEDITQEFPGKGKALFQVNQWLTWLETAEEEESEEEAD
DYT-TOR1A MEF EVs
  RTV Corrective Direction: YES
  DYT + RTV/DYT Cohen's d: 2.79
WT MEF EVs
  WT + ISRIB/WT Cohen's d: −3.04
  ISRIB and DYT Parallel Direction: YES

B3: Itgb5 (protein, UniProt O70309 24-798, looked up)
Integrin beta-5: GLNICTSGSATSCEECLLIHPKCAWCSKEYFGNPRSITSRCDLKANLIRNGCEGEIESPASSTHVLRNLPLSSKGSSATGSDVIQMTPQEIAVSLRPGEQTTFQLQVRQVEDYPVDLYYLMDLSLSMKDDLENIRSLGTKLAEEMRKLTSNFRLGFGSFVDKDISPFSYTAPRYQTNPCIGYKLFPNCVPSFGFRHLLPLTDRVDSFNEEVRKQRVSRNRDAPEGGFDAVLQAAVCKEKIGWRKDALHLLVFTTDDVPHIALDGKLGGLVQPHDGQCHLNEANEYTASNQMDYPSLALLGEKLAENNINLIFAVTKNHYMLYKNFTALIPGTTVEILHGDSKNIIQLIINAYSSIRAKVELSVWDQPEDLNLFFTATCQDGISYPGQRKCEGLKIGDTASFEVSVEARSCPGRQAAQSFTLRPVGFRDSLQVEVAYNCTCGCSTGLEPNSARCSGNGTYTCGLCECDPGYLGTRCECQEGENQSGYQNLCREAEGKPLCSGRGECSCNQCSCFESEFGRIYGPFCECDSFSCARNKGVLCSGHGECHCGECKCHAGYIGDNCNCSTDVSTCKAKDGQICSDRGRCVCGQCQCTEPGAFGETCEKCPTCPDACSSKRDCVECLLLHQGKPDNQTCHHQCKDEVITWVDTIVKDDQEAVLCFYKTAKDCVMMFSYTELPNGRSNLTVLREPECGSAPNAMTILLAVVGSILLIGMALLAIWKLLVTIHDRREFAKFQSERSRARYEMASNPLYRKPISTHTVDFAFNKFNKSYNGSV
DYT-TOR1A MEF EVs
  RTV Corrective Direction: YES
  DYT + RTV/DYT Cohen's d: −4.69
WT MEF EVs
  WT + ISRIB/WT Cohen's d: 1.22
  ISRIB and DYT Parallel Direction: YES

B4: Dpp3 (protein, UniProt Q99KK7 2-738, looked up)
Dipeptidyl peptidase 3: ADTQYILPNDIGVSSLDCREAFRLLSPTERLYAHHLSRAAWYGGLAVLLQTSPEAPYIYALLSRLFRAQDPDQLRQHALAEGLTEEEYQAFLVYAAGVYSNMGNYKSFGDTKFVPNLPKDKLGRVILGSKAAQQRPEEVRDLWQTCGDLMFSLEPRLRHLGLGKEGVTTYFSGDCTMEDAKLAQDFLDSQNLSAYNTRLFKVVGQEGKSHYEVRLASVLNTDPALDSELTSKLKRYEFQGNHFQVTRGDYAPILQKVVEHLEKAKAYAANSHQEQMLAQYVESFTQGSIEAHKRGSRFWIQDKGPIVESYIGFIESYRDPFGSRGEFEGFVAMVNKAMSAKFERLVASAEQLLKELPWPLAFEKDKFLTPDFTSLDVLTFAGSGIPAGINIPNYDDLRQTEGFKNVSLGNVLAVAYAAKREKLTFLEEEDKDLYIRWKGPSFDVQVGLHELLGHGSGKLFVQDEKGAFNFDKETVINPETGEQIQSWYRSGETWDSKFSTIASSYEECRAESVGLYLCLNPQVLEIFGFEGADAEDVIYVNWLNMVRAGLLALEFYTPEAANWRQAHMQARFVILRVLLEAGEGLVTVTPTTGSDGRPDARVRLDRSKIRSVGRPALERFLRRLQVLKSTGDVVAGRALYEGYAAVTDAPPECFLTLRDTVLLRKESRKLIVQPNTRLEGSEVQLVEYEASAAGLIRSFCERFPEDGPELEEVLIQLAAADARFWRNQAQEAPPGQA
DYT-TOR1A MEF EVs
  RTV Corrective Direction: YES
  DYT + RTV/DYT Cohen's d: 5.13
WT MEF EVs
  WT + ISRIB/WT Cohen's d: −1.56
  ISRIB and DYT Parallel Direction: YES

B5: Pbdc1 (protein, UniProt Q9D0B6 1-198, looked up)
Protein PBDC1: MDAAGESEEPVSGEALSIAHALSHPPESYGNDPDIEMAWAIRAMQHAEVYYKLISSVDPQFLKLTKVDDQIYSEFREIFETLRVDVLDPEELKSESAKEKWRPFCLKFEGIVEDYNYGTLLRLDCSQGYTEENTIFAPRIQFFAIEIARNREGYNKAVSVSIQDKEGEEGAGNKEEAAEKGADSGGEKEEGANREGEK
DYT-TOR1A MEF EVs
  RTV Corrective Direction: YES
  DYT + RTV/DYT Cohen's d: 3.36
WT MEF EVs
  WT + ISRIB/WT Cohen's d: −1.06
  ISRIB and DYT Parallel Direction: YES

B6: Hnrnpl (protein, UniProt P14866 1-589, looked up)
Heterogeneous nuclear …: MSRRLLPRAEKRRRRLEQRQQPDEQRRRSGAMVKMAAAGGGGGGGRYYGGGSEGGRAPKRLKTDNAGDQHGGGGGGGGGAGAAGGGGGGENYDDPHKTPASPVVHIRGLIDGVVEADLVEALQEFGPISYVVVMPKKRQALVEFEDVLGACNAVNYAADNQIYIAGHPAFVNYSTSQKISRPGDSDDSRSVNSVLLFTILNPIYSITTDVLYTICNPCGPVQRIVIFRKNGVQAMVEFDSVQSAQRAKASLNGADIYSGCCTLKIEYAKPTRLNVFKNDQDTWDYTNPNLSGQGDPGSNPNKRQRQPPLLGDHPAEYGGPHGGYHSHYHDEGYGPPPPHYEGRRMGPPVGGHRRGPSRYGPQYGHPPPPPPPPEYGPHADSPVLMVYGLDQSKMNCDRVFNVFCLYGNVEKVKFMKSKPGAAMVEMADGYAVDRAITHLNNNFMFGQKLNVCVSKQPAIMPGQSYGLEDGSCSYKDFSESRNNRFSTPEQAAKNRIQHPSNVLHFFNAPLEVTEENFFEICDELGVKRPSSVKVFSGKSERSSSGLLEWESKSDALETLGFLNHYQMKNPNGPYPYTLKLCFSTAQHAS
DYT-TOR1A MEF EVs
  RTV Corrective Direction: YES
  DYT + RTV/DYT Cohen's d: 6.17
WT MEF EVs
  WT + ISRIB/WT Cohen's d: −0.32
  ISRIB and DYT Parallel Direction: YES
